In patent publication US20210054076A1 (Chugai, published 2021):

What was measured:
Test in all cases: FACS on Ba/F3 transfectant, antibody 20 micro g/ml, FITC anti-human IgG
[1] = molecular target: T1, mouse CLDN4 (mouse, UniProt O35054 1-210)
T1 construct: whole, on cells; also called mCLDN4; BaF3_mCLDN4
T1 sequence (looked up): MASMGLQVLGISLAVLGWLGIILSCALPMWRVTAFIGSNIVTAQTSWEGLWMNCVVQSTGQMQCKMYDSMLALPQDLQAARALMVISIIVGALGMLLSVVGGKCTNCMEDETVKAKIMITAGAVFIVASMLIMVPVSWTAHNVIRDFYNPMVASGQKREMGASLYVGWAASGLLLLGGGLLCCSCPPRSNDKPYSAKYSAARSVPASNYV

[2] = molecular target: T2, human CLDN3 (human, UniProt O15551 1-220)
T2 construct: whole, on cells; also called hCLDN3; BaF3_hCLDN3
T2 sequence (looked up): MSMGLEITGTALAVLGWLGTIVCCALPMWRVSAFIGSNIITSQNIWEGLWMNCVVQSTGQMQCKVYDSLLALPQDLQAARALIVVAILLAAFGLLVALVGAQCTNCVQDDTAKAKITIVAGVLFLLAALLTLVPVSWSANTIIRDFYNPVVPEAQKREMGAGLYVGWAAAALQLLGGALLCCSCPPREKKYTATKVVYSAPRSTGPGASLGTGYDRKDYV

[3] = molecular target: T3, human CLDN6 (human, UniProt P56747 1-220)
T3 construct: 45 is entered here, 44 is equally possible; also called hCLDN6; human Claudin 6
T3 sequence: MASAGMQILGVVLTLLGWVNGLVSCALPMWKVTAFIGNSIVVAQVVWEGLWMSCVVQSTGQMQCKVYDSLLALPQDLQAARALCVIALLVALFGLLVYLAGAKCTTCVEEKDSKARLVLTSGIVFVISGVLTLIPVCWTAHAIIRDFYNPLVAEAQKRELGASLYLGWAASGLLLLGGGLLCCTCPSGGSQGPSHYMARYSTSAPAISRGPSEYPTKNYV

[4] = molecular target: T4, human CLDN9 (human, UniProt O95484 1-217)
T4 construct: whole, on cells; also called hCLDN9; BaF3_hCLDN9
T4 sequence (looked up): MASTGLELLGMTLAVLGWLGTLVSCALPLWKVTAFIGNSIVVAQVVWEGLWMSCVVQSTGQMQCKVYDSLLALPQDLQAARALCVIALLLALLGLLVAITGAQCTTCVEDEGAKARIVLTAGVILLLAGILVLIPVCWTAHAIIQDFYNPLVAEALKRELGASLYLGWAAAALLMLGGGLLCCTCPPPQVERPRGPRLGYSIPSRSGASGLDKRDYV

B1: CH04/CD3 (bispecific antibody, human IgG1, kappa, N297A)
heavy 1: EVQLQQSGPELVKPGASMKISCKASGYSFTGYTMNWVKQSHGKNLEWIGLINPYNGGTIYNQKFKGKATLTVDKSSSTAYMELLSLTSEDSAVYYCARDYGFVLDYWGQGTTLTVSSASTKGPSVFPLAPSSKSTSGGTAALGCLVKDYFPEPVTVSWNSGALTSGVHTFPAVLQSSGLYSLSSVVTVPSSSLGTQTYICNVNHKPSNTKVDKKVEPKSCDKTHTCPPCPAPELRGGPKVFLFPPKPKDTLMISRTPEVTCVVVDVSHEDPEVKFNWYVDGVEVHNAKTKPREEQYASTYRVVSVLTVLHQDWLNGKEYKCKVSNKALPAPIEKTISKAKGQPREPQVYTLPPSREEMTKNQVSLTCLVKGFYPSDIAVEWESNGQPENNYKTTPPYLDSDGSFFLYSKLTVDKSRWQQGNVFSCSVMHEALHNHYTQESLSLSP
light 1: DIVLTQSPSIMSVSPGEKVTITCSASSSVSYMHWFQQKPGTSPKLCIYSTSNLASGVPARFSGRGSGTSYSLTISRVAAEDAATYYCQQRSNYPPWTFGGGTKLEIKRTVAAPSVFIFPPSDEQLKSGTASVVCLLNNFYPREAKVQWKVDNALQSGNSQESVTEQDSKDSTYSLSSTLTLSKADYEKHKVYACEVTHQGLSSPVTKSFNRGEC
heavy 2: QVQLVESGGGVVQPGGSLRLSCAASGFTFSNAWMHWVRQAPGKGLEWVAQIKDKSQNYATYVAESVKGRFTISRADSKNSIYLQMNSLKTEDTAVYYCRYVHYAAGYGVDIWGQGTTVTVSSASTKGPSVFPLAPSSKSTSGGTAALGCLVKDYFPEPVTVSWNSGALTSGVHTFPAVLQSSGLYSLSSVVTVPSSSLGTQTYICNVNHKPSNTKVDKKVEPKSCDKTHTCPPCPAPELRGGPKVFLFPPKPKDTLMISRTPEVTCVVVDVSHEDPEVKFNWYVDGVEVHNAKTKPREEQYASTYRVVSVLTVLHQDWLNGKEYKCKVSNKALPAPIEKTISKAKGQPREPQVYTLPPSRKEMTKNQVSLTCLVKGFYPSDIAVEWESNGQPENNYKTTPPYLDSDGSFFLYSKLTVDKSRWQQGNVFSCSVMHEALHNHYTQKSLSLSP
light 2: DIVMTQSPLSLPVTPGEPASISCRSSQPLVHSNRNTYLHWYQQKPGQAPRLLIYKVSNRFSGVPDRFSGSGSGTDFTLKISRVEAEDVGVYYCGQGTQVPYTFGQGTKLEIKRTVAAPSVFIFPPSDEQLKSGTASVVCLLNNFYPREAKVQWKVDNALQSGNSQESVTEQDSKDSTYSLSSTLTLSKADYEKHKVYACEVTHQGLSSPVTKSFNRGEC
notes: Made by Fab arm exchange of the bivalent anti-CLDN6 antibody CH04 with the bivalent anti-CD3 antibody CD3-1; human IgG1 constant region; One anti-CLDN6 arm and one anti-CD3 arm; also called CLDN6-TRAB; CLDN6-targeted T-cell redirecting bispecific antibody
- Geo-mean value of FACS [1]: 23
- Geo-mean value of FACS [2]: 36
- Geo-mean value of FACS [3]: 3480
- Geo-mean value of FACS [4]: 186
